Key:
[1] = target: T1, TauC3 (C-terminally truncated tau fragment ending at aspartate 421 of htau40) (human, UniProt P10636 1-738); test: binding ELISA on coated TauC3, OD650; left table (HC variants)
T1 construct: Generated and purified by Genscript; also called Human TauC3; recombinant TauC3 protein
In short: (§1)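 Binding was measured by ELISA, with absorbance read at 650 nm, on coated TauC3 antigen that Genscript made and purified. ExpiCHO cells were used to express the chimeric or humanized IgG4κ antibodies. EC50 was obtained from the antibody concentration-response.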

[2] = target: T1, TauC3 (C-terminally truncated tau …); test: binding ELISA on coated TauC3, OD650
In short: as §1

[3] = target: T1, TauC3 (C-terminally truncated tau …); test: binding ELISA on coated TauC3, OD650; remark: listed apart in the source
In short: as §1

[4] = target: T1, TauC3 (C-terminally truncated tau …); test: binding ELISA on coated TauC3, OD650; remark: listed apart in the source
In short: as §1

T1 sequence (P10636 other isoform, or with tags, fused parts or gaps): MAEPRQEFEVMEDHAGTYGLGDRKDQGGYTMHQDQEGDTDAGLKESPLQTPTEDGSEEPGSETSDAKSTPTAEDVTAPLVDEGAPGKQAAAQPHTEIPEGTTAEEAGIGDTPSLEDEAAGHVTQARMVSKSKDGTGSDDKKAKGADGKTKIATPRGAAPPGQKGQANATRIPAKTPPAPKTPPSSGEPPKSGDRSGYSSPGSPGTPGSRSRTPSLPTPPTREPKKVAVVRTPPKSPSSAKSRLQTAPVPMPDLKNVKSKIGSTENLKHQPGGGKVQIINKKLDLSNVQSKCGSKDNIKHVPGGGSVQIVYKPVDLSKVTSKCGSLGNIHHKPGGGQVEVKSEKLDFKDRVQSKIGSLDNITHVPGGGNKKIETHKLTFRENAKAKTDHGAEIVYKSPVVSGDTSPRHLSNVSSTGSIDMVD

EC50 [1]	EC50 [2]	EC50 [3]	EC50 [4]	Binder
1.52 nM	6.45 nM	0.959 nM	–	Tau01 HCKA (antibody, V domains shown, human IgG4 kappa (HuG4K)) VH: LVQLVESGGGLVQPGGSLKLSCAASGFTFNTYAMNWVRQASGKGLEWVGRIRSKSNNYATYYAASVKGRFTISRDDSKSMAYLQMDSLKTEDTAVYYCVGGGDFWGQGTLVTVSS VL: DIQMTQSPSSLSASVGDRVTITCRASQEISVYLGWYQQKPGKAPKRLIYGAFKLQSGVPSRFSGSRSGTEFTLTISSLQPEDFATYYCLQYVRYPWTFGGGTKVEIK
1.57 nM	1.34 nM	–	–	Tau01 HCKC (antibody, V domains shown, human IgG4 kappa (HuG4K)) VH: LVQLVESGGGLVQPGGSLKLSCAASGFTFNTYAMNWVRQASGKGLEWVGRIRSKSNNYATYYAASVKGRFTISRDDSKSMAYLQMDSLKTEDTAVYYCVGGGDFWGQGTLVTVSS VL: DIQMTQSPSSLSASVGDRVTITCRASQEISVYLSWFQQKPGKAPKRLIYGAFKLQSGVPSRFSGSRSGTEYTLTISSLQPEDFATYYCLQYVRYPWTFGGGTKVEIK
–	–	–	0.482 nM	Tau01 HOKI (antibody, V domains shown, human IgG4 kappa (HuG4K)) VH: LVQVVESGGGLVQPGGSLKLSCAASGFTFNTYAMNWVRQASGKGLEWVARIRSKSNNYATYYAASVKGRFTISRDDSKSMAYLQMDSLKTEDTAVYYCVGGGDFWGQGTLVTVSS VL: DIQMTQSPSSLSASVGDRVTITCRASQEISVYLGWYQQKPGKAPKRLIYGAFKLQSGVPSRFSGSRSGTEYTLTISSLQPEDFATYYCLQYVRYPWTFGGGTKVEIK
–	–	–	0.556 nM	Tau01 HOKJ (antibody, V domains shown, human IgG4 kappa (HuG4K)) VH: LVQVVESGGGLVQPGGSLKLSCAASGFTFNTYAMNWVRQASGKGLEWVARIRSKSNNYATYYAASVKGRFTISRDDSKSMAYLQMDSLKTEDTAVYYCVGGGDFWGQGTLVTVSS VL: DIQMTQSPSSLSASVGDRVTITCRASQEISVYLGWYQQKPGKAPKRLIYGAFSLQSGVPSRFSGSRSGTEFTLTISSLQPEDFATYYCLQYVRYPWTFGGGTKVEIK
–	–	–	0.51 nM	Tau01 HOKB (antibody, V domains shown, human IgG4 kappa (HuG4K)) VH: LVQVVESGGGLVQPGGSLKLSCAASGFTFNTYAMNWVRQASGKGLEWVARIRSKSNNYATYYAASVKGRFTISRDDSKSMAYLQMDSLKTEDTAVYYCVGGGDFWGQGTLVTVSS VL: DIQMTQSPSSLSASVGDRVTITCRASQEISVYLSWFQQKPGKAIKRLIYGAFTLQSGVPSRFSGSRSGSEYTLTISSLQPEDFATYYCLQYVRYPWTFGGGTKVEIK
–	–	–	0.604 nM	Tau01 HOKG (antibody, V domains shown, human IgG4 kappa (HuG4K)) VH: LVQVVESGGGLVQPGGSLKLSCAASGFTFNTYAMNWVRQASGKGLEWVARIRSKSNNYATYYAASVKGRFTISRDDSKSMAYLQMDSLKTEDTAVYYCVGGGDFWGQGTLVTVSS VL: DIQMTQSPSSLSASVGDRVTITCRASQEISVYLGWYQQKPGKAPKRLIYGAFTLQSGVPSRFSGSRSGTEFTLTISSLQPEDFATYYCLQYVRYPWTFGGGTKVEIK

Source: patent publication US20220064272A1 (TAUC3 BIOLOGICS, published 2022)
